Assay results as given in PMC3093405, “A Motif Unique to the Human Dead-Box Protein DDX3 Is Important for Nucleic Acid Binding, ATP Hydrolysis, RNA/DNA Unwinding and HIV-1 Replication”.

Target: DDX3wt (Homo sapiens, UniProt O00571 1-662)
Test: EMSA; no ATP; EMSA: on ice, protein buffer 25 mM Tris-HCl pH 7.5, 0.5 mM DTT, 20% glycerol, 100 mM NaCl plus 5x binding buffer (10% glycerol, 5 mM MgCl2, 2.5 mM EDTA pH 8, 50 mM NaCl, 50 mM Tris-HCl pH 7.5, 10 mM DTT), 0.05 pmol oligo. Filter binding: 10 mM Hepes pH 7.2, 100 mM KCl, 3 mM MgCl2, 5% glycerol, 1 mM DTT, 50 µg/ml salmon sperm DNA, 50 nM dsDNA, 24°C
Conditions: protein: recombinant; tags: N-terminal ~3 kDa peptide with 6xHis; C-terminal KQGCFGG; label: 5' 6-FAM

Chain of DDX3wt (O00571 whole entry): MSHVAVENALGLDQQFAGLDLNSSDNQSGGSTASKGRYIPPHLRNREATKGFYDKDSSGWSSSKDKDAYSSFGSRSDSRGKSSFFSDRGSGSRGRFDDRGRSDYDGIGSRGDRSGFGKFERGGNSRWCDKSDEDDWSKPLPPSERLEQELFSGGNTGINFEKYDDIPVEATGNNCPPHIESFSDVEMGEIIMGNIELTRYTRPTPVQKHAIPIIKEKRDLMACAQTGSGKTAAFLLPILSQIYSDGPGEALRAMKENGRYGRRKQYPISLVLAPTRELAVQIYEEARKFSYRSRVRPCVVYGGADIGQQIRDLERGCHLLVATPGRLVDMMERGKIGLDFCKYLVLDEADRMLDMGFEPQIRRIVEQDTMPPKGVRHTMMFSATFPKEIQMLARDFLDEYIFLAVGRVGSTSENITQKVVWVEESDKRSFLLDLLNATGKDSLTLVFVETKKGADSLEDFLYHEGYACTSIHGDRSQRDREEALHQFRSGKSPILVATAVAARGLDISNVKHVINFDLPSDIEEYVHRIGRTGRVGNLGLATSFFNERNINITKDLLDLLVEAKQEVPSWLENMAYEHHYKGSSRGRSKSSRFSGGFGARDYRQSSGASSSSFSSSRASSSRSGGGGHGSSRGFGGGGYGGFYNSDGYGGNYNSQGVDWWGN

Binder | binding result
CCCAAGAACCCAAGGAAC (ssRNA) [ssRNA (6-FAM r18mer)] | binds
CTCAACTCAACCCTTCAT (ssDNA) [ssDNA (6-FAM d18mer)] | binds
